Results as given in the Immune Epitope Database (IEDB).
pIC50, pKd: −log10 of the molar value.

Tests used:
HLA-A*11:01 = assay: IEDB peptide-MHC binding, purified MHC/direct/fluorescence; filed as Kd, often an IC50 or EC50 that approximates it; ≥ and ≤ were set here for values at or beyond the usual limits of such assays; settings: source organism: Camelpox virus CMS
HLA-B*08:01 = assay: as above; settings: source organism: Variola virus
HLA-C*05:01 = assay: as above; settings: source organism: Vaccinia virus WR
HLA-B*07:02 = assay: as above; settings: source organism: Camelpox virus CMS
HLA-A*31:01 = assay: as above; settings: source organism: Camelpox virus CMS
HLA-A*01:01 = assay: as above; settings: source organism: Camelpox virus CMS
HLA-A*26:01 [1] = assay: as above; settings: source organism: Variola virus
HLA-B*27:05 = assay: as above; settings: source organism: Camelpox virus CMS
HLA-A*69:01 [2] = assay: as above; settings: source organism: Camelpox virus CMS
HLA-B*18:01 [3] = assay: as above; settings: source organism: Camelpox virus CMS
HLA-B*51:01 [4] = assay: as above; settings: source organism: Camelpox virus CMS
HLA-B*15:01 [5] = assay: as above; settings: source organism: Camelpox virus CMS
HLA-B*46:01 [6] = assay: as above; settings: source organism: Camelpox virus CMS
HLA-B*08:02 = assay: as above; settings: source organism: Variola virus
HLA-B*57:01 [7] = assay: as above; settings: source organism: Camelpox virus CMS
HLA-B*15:17 = assay: as above; settings: source organism: Camelpox virus CMS
HLA-B*48:01 = assay: as above; settings: source organism: Camelpox virus CMS
HLA-B*40:01 = assay: as above; settings: source organism: Camelpox virus CMS
HLA-B*58:01 = assay: as above; settings: source organism: Camelpox virus CMS
HLA-A*03:01 = assay: as above
HLA-A*02:01 = assay: as above
HLA-A*68:23 = assay: IEDB peptide-MHC binding, purified MHC/competitive/fluorescence; filed as Kd, often an IC50 or EC50 that approximates it; ≥ and ≤ were set here for values at or beyond the usual limits of such assays; settings: source organism: Vaccinia virus WR
HLA-B*15:42 = assay: as above; settings: source organism: Vaccinia virus WR
HLA-B*15:09 = assay: as above; settings: source organism: Vaccinia virus WR
HLA-B*39:01 = assay: as above
HLA-A*32:15 = assay: as above; settings: source organism: Vaccinia virus WR
HLA-B*45:06 = assay: as above; settings: source organism: Vaccinia virus WR
HLA-B*14:02 = assay: IEDB peptide-MHC binding, purified MHC/competitive/fluorescence; ≥ and ≤ were set here for values at or beyond the usual limits of such assays; settings: source organism: Horsepox virus
HLA-A*02:11 = assay: IEDB peptide-MHC binding, purified MHC/direct/fluorescence; filed as Kd, often an IC50 or EC50 that approximates it; ≥ and ≤ were set here for values at or beyond the usual limits of such assays; settings: source organism: Zaire ebolavirus
HLA-A*68:02 = assay: as above; settings: source organism: Zaire ebolavirus
HLA-A*29:02 = assay: as above; settings: source organism: Zaire ebolavirus
HLA-B*27:03 = assay: IEDB peptide-MHC binding, purified MHC/competitive/fluorescence; filed as Kd, often an IC50 or EC50 that approximates it; ≥ and ≤ were set here for values at or beyond the usual limits of such assays; settings: source organism: Zaire ebolavirus
HLA-A*80:01 = assay: as above; settings: source organism: Zaire ebolavirus
HLA-A*25:01 = assay: as above; settings: source organism: Zaire ebolavirus
HLA-A*26:01 [8] = assay: as above; settings: source organism: Zaire ebolavirus
HLA-A*69:01 [9] = assay: as above; settings: source organism: Zaire ebolavirus
HLA-B*18:01 [10] = assay: as above; settings: source organism: Zaire ebolavirus
HLA-B*51:01 [11] = assay: as above; settings: source organism: Zaire ebolavirus
HLA-B*15:01 [12] = assay: as above; settings: source organism: Zaire ebolavirus
HLA-B*46:01 [13] = assay: as above; settings: source organism: Zaire ebolavirus
HLA-B*57:01 [14] = assay: as above; settings: source organism: Zaire ebolavirus
[15] = source organism: Camelpox virus CMS
[16] = source organism: Zaire ebolavirus

MPAYIRNTL
pKd (HLA-A*11:01): ≤ 4.70
pKd (HLA-B*08:01): 8.10
pKd (HLA-C*05:01): ≤ 4.70
pKd (HLA-B*07:02): 8.18
pKd (HLA-A*31:01): ≤ 4.70
pKd (HLA-A*01:01): ≤ 4.70
pKd (HLA-A*26:01 [1]): 5.16
pKd (HLA-B*27:05): ≤ 4.70
pKd (HLA-A*69:01 [2]): ≥ 9.00
pKd (HLA-B*18:01 [3]): 5.55
pKd (HLA-B*51:01 [4]): 6.17
pKd (HLA-B*15:01 [5]): ≤ 4.70
pKd (HLA-B*46:01 [6]): ≤ 4.70
pKd (HLA-B*08:02): 5.86
pKd (HLA-B*57:01 [7]): ≤ 4.70
pKd (HLA-B*15:17): ≤ 4.70
pKd (HLA-B*48:01): 5.82
pKd (HLA-B*40:01): ≤ 4.70
pKd (HLA-B*58:01): ≤ 4.70
pKd (HLA-A*03:01; [15]): ≤ 4.70
pKd (HLA-A*02:01; [15]): ≤ 4.70
pKd (HLA-A*68:23): 9.05
pKd (HLA-B*15:42): ≤ 5.30
pKd (HLA-B*15:09): ≤ 4.70
pKd (HLA-B*39:01; source organism: Vaccinia virus WR): 7.44
pKd (HLA-A*32:15): 7.20
pKd (HLA-B*45:06): ≤ 5.30
pIC50 (HLA-B*14:02): 6.34

SLTDRELLL
pKd (HLA-A*02:11): ≤ 4.70
pKd (HLA-A*03:01; [16]): ≤ 4.70
pKd (HLA-A*68:02): ≤ 4.70
pKd (HLA-A*29:02): ≤ 4.70
pKd (HLA-A*02:01; source organism: Sudan ebolavirus - Uganda (2000)): 8.89
pKd (HLA-B*27:03): ≤ 4.70
pKd (HLA-A*80:01): ≤ 4.70
pKd (HLA-A*25:01): ≤ 4.70
pKd (HLA-A*26:01 [8]): ≤ 4.70
pKd (HLA-A*69:01 [9]): ≤ 4.70
pKd (HLA-B*39:01; [16]): ≤ 4.70
pKd (HLA-B*18:01 [10]): ≤ 4.70
pKd (HLA-B*51:01 [11]): ≤ 4.70
pKd (HLA-B*15:01 [12]): ≤ 4.70
pKd (HLA-B*46:01 [13]): ≤ 4.70
pKd (HLA-B*57:01 [14]): ≤ 4.70
